Patent US20090176711A1, “INHIBITORS OF AMYLOID PRECURSOR PROTEIN PROCESSING” (priority 2008, published 2009)
Non-standard residues stand in square brackets, D forms with d. No end group written: not given here. *: point of attachment. Biotin = O=C1N[C@H]2[C@H](CS[C@H]2CCCCC(=O)*)N1; Dnp = O=[N+]([O-])c1ccc(*)c([N+](=O)[O-])c1; Mca = COc1ccc2c(CC(=O)*)cc(=O)oc2c1; Ahx = NCCCCCC(=O)O

Tests used:
[1] = system: cleavage of F-Substrate M (f-Sub M) by rhBACE1; experiment: Fluorometric (FRET) assay for cleavage of F-Substrate M by rhBACE; type: biochemical, human; details: cleavage of f-Sub M by rhBACE1 (FIG. 29A)
Excerpt: This assay system utilizes fluorescence resonance energy transfer (FRET) technology. Substrate M was synthesized with two fluorophores, a fluorescent donor and a proprietary quenching acceptor (purchased from a commercial source, R&D Systems). […] Upon cleavage of substrate by β-secretase, the fluorophore is separated from the quenching group, restoring the full fluorescence yield of donor.
Substrate labeled with fluorophores will be called F-Substrate M (R&D Systems). Recombinant human β-secretase will be called rhBACE (recombinant human β-site APP cleavage enzyme) (purchased from R&D systems).
F-Substrate M (20 μM) was preincubated with varying concentrations of complementary peptides in assay buffer (0.1 M NaOAc, pH 4.0) for 1 hr at RT. rhBACE (70 nM) in assay buffer was added. Cleavage by rhBACE was detected by reading emitted fluorescence level.
In this assay system, fluorescence resonance energy transfer (FRET) technology was utilized. Swedish mutant APP substrate (f-Sub M) with a fluorescent donor and a proprietary quenching acceptor (7-methoxycoumarin-4-acetyl-SEVNLDAEFRK(Dnp)-RR-NH2) was purchased from R&D systems, Inc (MN, USA). […] Upon cleavage of substrate by rhBACE1 (R&D Systems, Inc., MN, USA), the fluorescence donor is separated from the quenching group, restoring the full fluorescence yield of the donor. f-Sub M (10 μM) was pre-incubated with HC peptide in assay buffer (0.1 M NaOAc, pH 4.0) for 2 h at RT. After pre-incubation, substrate and HC peptide mixture in assay buffer was transferred to FluoroNunc™ 96 well white plate (Nunc, Roskilde, Denmark), and rhBACE1 (70 nM) was added. Time-dependent emission of fluorescence (excitation at 320 nm, emission at 405 nm) was monitored in a Molecular Devices SpectraMax Gemini EM fluorescence reader (CA, USA) for 1 h at 37° C. All assays were carried out in duplicate.

[2] = system: production of Aβ in HEK 293-APP cells; experiment: Measurement of Aβ level in culture media of HEK293-APP cells (Aβ1-40 immunoassay); type: cell-based, human
Protocol: Human embryonic kidney (HEK) 293 cells stably transformed with the gene for APP695 (HEK 293-APP) were used for studies on the inhibitory activity of HC peptides. HEK 293-APP cells were generously supplied by Dr. T W Kim (Columbia University, NY, USA). HEK 293-APP cells were cultured in Dulbecco's Modified Eagle's Medium (DMEM) (Invitrogen, CA, USA) with 10% fetal bovine serum (HyClone, UT, USA) and 300 μg/ml of geneticin (Invitrogen, CA, USA) in a humidified atmosphere of 5% CO2, 95% air at 37° C. Cells were subcultured after trypsinization, and the medium was changed every 2-3 days.
Most of the APP processing including the cleavage by BACE1 occurs in endoplasmic reticulum (ER)/Golgi complex and endosome. It was investigated if c-Sub M and the deletion series would inhibit processing of APP in the cells. For this examination, HEK293 cells transformed with wild type human APP genes for our investigation was chosen.
The culture media from the peptide-treated cells (see above) was harvested and centrifuged at 3500×g for 10 min. Amount of Aβ in the supernatant was determined with human Aβ1-40 immunoassay kits (Signal Select™, BioSource, CA, USA) according to the instruction provided by the company.

[3] = system: CTFβ accumulation (cleavage of APP by BACE1) in HEK 293-APP cells; experiment: Level of CTFβ in HEK 293-APP cells (immunoblot, 6E10); type: cell-based, human; details: HEK293-APP cells, 9 h
Protocol: When the confluency of the cells reached 90%, the cells were washed with PBS once, and HC peptide in serum free DMEM was added to the cells. […] The lysed cells were centrifuged at 12000×g for 10 min at 4° C. The protein in the supernatant was determined by bicinchoninic acid assay (Pierce, IL, USA) [Smith, P. K., Krohn, R. I., Hermanson, G. T., Mallia, A. K., Gartner, F. H., Provenzano, M. D., Fujimoto, E. K., Goeke, N. M., Olson, B. J., and Klenk, D. C. […] After electrophoresis, the proteins in the gel were electrophoretically transferred onto a polyvinylidene difluoride (PVDF) membrane at 100 mA for 80 min. The blotted membrane was fixed with 0.2% glutaraldehyde in PBS for 45 min at RT and treated for 5 min in boiling PBS. CTFβ (the C-terminal fragment of APP generated by BACE1) was detected by treatment of the membrane with 0.5 μg/ml of anti-Aβ Nterminal 6E10 antibody (Signetlabs, Inc., MA, USA) followed by incubation with 0.2 μg/ml of anti-mouse antibody coupled with HRP (Amersham Biosciences Ltd. Uppsala, Sweden). The developed film was scanned and the density of CTFβ band was determined by Scion Image Program (Scion Corporation, MD, USA).

[4] = system: APP processing in HEK293-APP cells; experiment: APP inhibitor activity on HEK293-APP cells (βCTF Western blot); type: cell-based, human; details: γ-secretase inhibitor and cholesterol added
Protocol: In the neuronal cells of the brain, APP is processed by α-secretase or β-secretase. To investigate the effects of the inhibitors on the cell, a cell based assay system was developed as described in FIG. 10. C-terminal fragment of APP remaining on the cell membrane was detected by Western blot. The resulting C-terminal fragments, αCTF or βCTF are further processed by γ-secretase. However, if the cells are treated with the γ-secretase inhibitor, this processing is blocked. As a result, αCTF or βCTF accumulate in the cell. If β-secretase inhibitor or APP inhibitor is added, this processing is blocked and βCTF disappears.
In addition, γ-secretase inhibitor and cholesterol were added to the cells to increase βCTF level. Commercially available peptide-based β-secretase inhibitor was included as control (Lane 6, FIG. 11). To detect the N-terminal fragment of β-amyloid which is a product of APP processing, 6E10 antibody was employed. […] Recently, it has been reported that the commercially available peptide-based inhibitor had to be linked to an oligoarginine transporter peptide to have inhibitory activity against cells. Therefore, mimetic approach is adopted to produce cell permeable analogs. (Chang et al. J. Neurochemistry 2004; 89:1409-1416).
After confirming the ability of the oligo-arginine coupled APP inhibitors to enter the cells, the inhibitors were applied to HEK293-APP cells overexpressing APP to test their inhibitory activities on APP processing. […] This inhibitor started to show significant inhibitory activity beginning from 0.1 μM (lower panel).

[5] = system: Substrate M (Sub M, SEVNLDAEFR; β-secretase cleavage site of APPsw); experiment: Binding of biotin-labeled Substrate M to immobilized complementary (HC) peptides; details: substrate not specified
Protocol: (§1) Complementary peptides (0.2, 2, 20, and 200 μM) were dissolved in phosphate buffered saline (PBS) (pH 7.4) and fixed to microtiter wells for 5 hr at 37° C. The wells were blocked with blocking buffer (3% BSA/PBS) for 1 hr at 37° C. Either N-terminally biotinylated Substrate W or M (20 μM) in blocking buffer was added and incubated for overnight at 4° C. Streptavidin-horseradish peroxidase in blocking buffer was added to detect resulting bound substrates. The plate was incubated for 2 hr at room temperature (RT), followed by addition of 3,3′,5,5′-tetramethyl-benzidine (TMB) as substrate for horseradish peroxidase for color reaction.
(§2) Reacti-Bind™ maleic anhydride-activated polystyrene plate (Pierce, IL, USA) was coated with 50 μl of HC peptide (200 μM in distilled water) by chemical coupling for 3 h at room temperature (RT) and washed three times with phosphate buffered saline (PBS) containing 0.05% tween 20 (PBST). The plate was blocked with blocking buffer (0.5% gelatin in PBS) for 1 h at RT. After discarding blocking buffer, biotinylated BACE1 substrates (200 μM) in blocking buffer was applied on the plate and incubated for 2.5 h at RT. Each well was washed three times with PBST. The bound biotinylated BACE1 substrates were detected by incubation with streptavidin-horseradish peroxidase (Str-HRP, 125 mU/ml in blocking buffer) for 2 h at RT. Color reaction was carried out with 50 μl of 3,3′,5,5′-Tetramethylbenzidine Liquid Substrate (Sigma-Aldrich, MO, USA). After stopping the reaction by addition of an equal volume of 1 N HCl, absorbance at 450 nm was read in an automated ELISA reader (EL 312e, Bio-Tek Instruments, VT, USA). All assays were carried out in duplicate.

[6] = molecular target: T1, f-Sub M (7-methoxycoumarin-4-acetyl-SEVNLDAEFRK(Dnp)-RR-NH2); experiment: cell-based or functional assay
T1 peptide: Mca-SEVNLDAEFRK(Dnp)RR-NH2

[7] = molecular target: T2, N-terminally biotinylated Substrate M; experiment: plate assay: HC peptide chemically coupled to wells, bio-Sub M, streptavidin-HRP (Table 2)
T2 construct: also called bio-Sub M; Sub M
T2 peptide: Biotin-SEVNLDAEFR
Protocol: as §2
The binding and inhibitory activities of these peptides were determined as described in Experimental Procedures. The concentration of HC peptides and f-Sub M was 0.5 mM and 10 μM, respectively. All the experimental data for the binding activity as well as for the inhibitory activity were within 5% error range.

[8] = molecular target: T2, N-terminally biotinylated Substrate M; experiment: plate assay: complementary peptide on wells, biotinylated substrate, streptavidin-HRP
Protocol: as §1

[9] = molecular target: T3, N-terminally biotinylated Substrate W; experiment: plate assay: HC peptide chemically coupled to wells, bio-Sub W, streptavidin-HRP (FIG. 27)
T3 construct: also called bio-Sub W; Sub W
T3 peptide: Biotin-SEVKMDAEFR
Protocol: as §2
Thereafter, it was investigated if the c-Sub M and the deletions series bind to wild type Sub W. The results will give us important information on possibility of inhibition of wild type of APP cleavage in cells by the HC peptides derived from Sub M in view of the poor cleavage of Sub W by rhBACE1 in vitro. […] Thus, there is possibility that the HC peptides for Sub M (c-Sub M series) or its peptidomimetics will inhibit the cleavage of wild type APP by BACE1 in cells.

[10] = molecular target: T4, recombinant human β-secretase (rhBACE1) (human, UniProt P56817 22-457, limits assumed); experiment: ELISA, c-Sub M immobilized
T4 construct: Bought reagent; also called recombinant human β-site APP cleavage enzyme

[11] = molecular target: T3, N-terminally biotinylated Substrate W; experiment: plate assay: complementary peptide on wells, biotinylated substrate, streptavidin-HRP
Protocol: as §1

[12] = molecular target: T2, N-terminally biotinylated Substrate M; experiment: plate assay: HC peptide chemically coupled to wells, bio-Sub M, streptavidin-HRP (Table 1)
Protocol: as §2
The HC peptides were chemically coupled to the surface of a microtiter plate to minimize the different coating efficiency of peptides, and the Sub M labeled with biotin (bio-Sub M) was applied. bio-Sub M bound to c-Sub but not to Sub M-c (FIG. 25A). To test inhibitory activity of HC peptide, FRET assay system was used as described above. […]

T4 sequence (P56817 22-457 limits assumed): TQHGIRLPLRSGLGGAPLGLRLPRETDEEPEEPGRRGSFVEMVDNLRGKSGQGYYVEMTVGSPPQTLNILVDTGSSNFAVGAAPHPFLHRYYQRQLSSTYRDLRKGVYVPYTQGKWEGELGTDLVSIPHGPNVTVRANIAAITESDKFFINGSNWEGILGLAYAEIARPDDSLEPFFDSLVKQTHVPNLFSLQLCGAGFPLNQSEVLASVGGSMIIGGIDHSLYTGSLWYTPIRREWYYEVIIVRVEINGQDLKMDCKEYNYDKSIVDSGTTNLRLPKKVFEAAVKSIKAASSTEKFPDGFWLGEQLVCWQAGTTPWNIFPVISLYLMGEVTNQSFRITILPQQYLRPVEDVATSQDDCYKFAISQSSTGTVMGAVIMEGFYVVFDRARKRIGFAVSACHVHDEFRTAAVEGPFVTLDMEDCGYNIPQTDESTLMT

Molecule: NH2-(CH2)5-CO-Cys-Ile-Gln-Ile-His-Phe-NH2 ([Ahx]CIQIHF-NH2; N-terminus assumed; SMILES CC[C@H](C)[C@H](NC(=O)[C@H](CCC(N)=O)NC(=O)[C@@H](NC(=O)[C@H](CS)NC(=O)CCCCCN)[C@@H](C)CC)C(=O)N[C@@H](Cc1c[nH]cn1)C(=O)N[C@@H](Cc1ccccc1)C(N)=O) [AHX-c-Sub M ΔN3C1]
- in vitro inhibitory activity relative to non-modified c-Sub M ΔN3C1 [1]: by half
- reduction of amount of Aβ released ([2]; 6.25 μM, 9 h): about 70%
- amount of Aβ released into the culture medium ([2]; increasing concentrations): reduced in a concentration dependent manner
- accumulation of the cleavage product CTFβ [3]: inhibited the accumulation of both forms of CTFβs

Molecule: SEFC (also: cyclic, mode of cyclisation not given here) [c-Sub MΔC6]
- inhibitory activity on APP processing (βCTF) [4]: none of the inhibitors tested showed inhibitory activity
- absorbance in binding test [5]: high absorbance

Molecule: β-secretase inhibitor IV [reference compound]
- inhibition of production of Aβ ([2]; 2 μM): about 90%
- accumulation of the cleavage product CTFβ [3]: inhibited accumulation of only the nonphosphorylated form of CTFβ

Molecule: SEFCIQIHF-NH2 [c-Sub M ΔC1]
- inhibitory activity for the cleavage of f-Sub M by rhBACE1 (FRET; HC peptide 1 mM, f-Sub M 10 µM) [6]: 90%
- binding result [7]: binds

B1: c-Sub M (peptide)
peptide: SEFCIQIHFR-NH2
notes: Hydropathic complementary decapeptide to Sub M, read 5'-3'
- binding result [8]: binds
- inhibition of cleavage of f-Sub M by rhBACE1 (FRET), HC peptide 100 fold over substrate [6]: ~50%
- inhibitory activity for the cleavage of f-Sub M by rhBACE1 (FRET; HC peptide 1 mM, f-Sub M 10 µM) [6]: 45%
- fold binding to Sub W relative to c-Sub W [9]: 4 fold
- binding result [10]: no binding

B2: c-Sub W (peptide)
peptide: SEFCIHLHFR-NH2
notes: Hydropathic complementary decapeptide to Sub W, read 5'-3'
- binding result [11]: binds
- binding result [12]: binds

B3: Sub W-c (peptide)
peptide: RLHFYLRLKA-NH2
notes: Hydropathic complementary decapeptide to Sub W, read 3'-5'
- binding result [12]: binds
